According to patent US20140057830A1 (COMPLIX, published 2014):

T1: human IL-23 (human, UniProt Q9NPF7 20-189; P29460 23-328)
T1 construct: Heterodimer p19/p40; in the ELISA captured on the plate through a biotinylated anti-p40 antibody (clone C8.6); also called cytokine IL-23 (eBioscience, 34-8239-85)
T1 sequence (looked up) 1: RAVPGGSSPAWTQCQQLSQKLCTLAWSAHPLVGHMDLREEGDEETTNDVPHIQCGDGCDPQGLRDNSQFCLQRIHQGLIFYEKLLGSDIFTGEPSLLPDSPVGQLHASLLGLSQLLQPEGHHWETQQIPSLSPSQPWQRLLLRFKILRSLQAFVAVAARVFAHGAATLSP
T1 sequence (looked up) 2: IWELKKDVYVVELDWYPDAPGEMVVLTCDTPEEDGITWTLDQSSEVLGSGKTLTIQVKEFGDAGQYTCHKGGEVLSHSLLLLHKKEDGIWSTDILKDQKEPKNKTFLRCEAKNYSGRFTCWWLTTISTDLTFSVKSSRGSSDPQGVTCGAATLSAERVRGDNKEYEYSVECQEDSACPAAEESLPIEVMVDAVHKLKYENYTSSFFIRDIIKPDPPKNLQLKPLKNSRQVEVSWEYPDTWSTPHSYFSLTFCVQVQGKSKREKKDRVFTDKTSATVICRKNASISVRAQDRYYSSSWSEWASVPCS

T2: human Flt3L (human, UniProt P49771 27-160, limits assumed)
T2 construct: Biotinylated form used in biopanning and phage ELISA; unlabelled in ITC and crystallography; also called hFlt3L; Flt3 ligand
T2 sequence (looked up): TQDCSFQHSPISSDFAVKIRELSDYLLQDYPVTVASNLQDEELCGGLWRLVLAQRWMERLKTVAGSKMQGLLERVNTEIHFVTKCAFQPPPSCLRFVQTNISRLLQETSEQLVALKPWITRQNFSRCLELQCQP


Columns and labels:
[1] = target: T1, human IL-23; experiment: phage ELISA; IL-23 captured by anti-p40 antibody
Protocol: The set-up of the ELISA was as follows. Neutravidin was immobilized on the plate at a concentration of 0.010 mg/ml in PBS (0.100 ml) for 1 hour at room temperature (RT). Plates were washed 5 times with PBS containing 0.05% Tween 20 (PBST) for 5 min. Subsequently, 0.1 ml Biotinylated anti-p40 antibody (100 nM) was added to the plates in PBS containing 0.1% BSA and incubated overnight at 4° C. or at RT for 1 hour. After incubation, plates were washed 5 times with PBST and blocked with PBS containing 0.1% BSA and 0.5% gelatin (0.120 ml/well) for at least 1 hour at room temperature or overnight at 4° C. After washing 5 times with PBST, 100 nM IL-23 (target) was added to 0.1 ml PBS, 0.1% BSA. For individual negative controls no IL-23 was added (background).
In the meantime, the bacteria plates were centrifuged at 1700 rpm for 10 min to pellet the bacteria. Plates with the immobilized IL-23 were washed 5 times with PBST and 0.050 ml of PBS with 0.2% BSA were added to the plate together with 0.050 ml of the bacterial culture supernatant containing phage. Plates were incubated for 1 to 1.5 hours at room temperature while shaking. Shaking of the plates enhanced the ELISA signals.

[2] = target: T2, human Flt3L; experiment: isothermal titration calorimetry, 37 C, triplicate
Protocol: (§1) The binding of Alphabody hFlt3L_cl4 to the target hFlt3L was tested by isothermal titration calorimetry (ITC) in order to determine its dissociation constant (KD), thermodynamic parameters (ΔH, ΔS) and binding stoichiometry. Prior to the measurements, Alphabody and target samples were dialyzed against 20 mM HEPES buffer containing 150 mM NaCl, pH 7.4. The ITC measurements were performed in triplicate at a temperature of 37° C. In each experiment, hFlt3L, which exists as a stable dimer in solution, was loaded into the cell (at concentrations 3.0 μM, 6.5 μM and 7.0 μM of hFlt3L dimer, respectively) and hFlt3L_cl4 was loaded in the syringe (at concentrations of 41.35 μM, 89.62 μM and 89.62 μM, respectively). […] This implies that, since the concentrations of hFlt3L were given for the dimeric complex (hFlt3L)₂, only one hFlt3L_cl4 Alphabody binds to one hFlt3L dimer.

[3] = target: T2, human Flt3L; experiment: isothermal titration calorimetry, 37 C, triplicate; hFlt3L dimer in the cell, Alphabody in the syringe
Protocol: as §1

Row | Binder | binding result [1] | other results
1 | SEQ ID NO 104 (designed binder, Alphabody, AC11b library clone) GSIEQIQKNIAYIQERIATIQKKIYRMTGGSGGSGGGGSGGSGGGSIEQIQKQIAAIQKQIAAIQKQIYAMTGSGGGGSGGSGGGGSGGSIEQIQKQIGAIAEQILAIVKQIRAMTP | binds | –
2 | SEQ ID NO 102 (designed binder, Alphabody, AC11b library clone) GSIEQIQKIIASIQEPIARIQKGIYRMTGGSGGSGGGGSGGSGGGSIEQIQKQIAAIQKQIAAIQKQIYAMTGSGGGGSGGSGGGGSGGSIEQIQKQIGAIAEQILAIFKQIRAMTP | binds | –
3 | SEQ ID NO 114 (designed binder, Alphabody, AC11b library clone) GSIEQIQKRIARIQEPIAGIQKRIYMMTGGSGGSGGGGSGGSGGGSIEQIQKQIAAIQKQIAAIQKQIYAMTGSGGGGSGGSGGGGSGGSIEQIQKQIRAIAEQIVAIAKQIVAMTP | binds | –
4 | SEQ ID NO 95 (designed binder, Alphabody, AC11b library clone) GSIEQIQKPIALIQERIATIQKLIYGMTGGSGGSGGGGSGGSGGGSIEQIQKQIAAIQKQIAAIQKQIYAMTGSGGGGSGGSGGGGSGGSIEQIQKQISAIAEQILAISKQIWAMTP | binds | –
5 | SEQ ID NO 96 (designed binder, Alphabody, AC11b library clone) GSIEQIQKWIACIQECIAGIQKEIYIMTGGSGGSGGGGSGGSGGGSIEQIQKQIAAIQKQIAAIQKQIYAMTGSGGGGSGGSGGGGSGGSIEQIQKQIRAISEQIYAIIKQISAMTP | binds | –
6 | SEQ ID NO 122 (designed binder, Alphabody, AC11b library clone) GSIEQIQKRIAPIQESIAGIQKRIYRMTGGSGGSGGGGSGGSGGGSIEQIQKQIAAIQKQIAAIQKQIYAMTGSGGGGSGGSGGGGSGGSIEQIQKQIRAITEQIGAILKQIFAMTP | binds | –
7 | SEQ ID NO 107 (designed binder, Alphabody, AC11b library clone) GSIEQIQKPIARIQETIAIIQKTIYRMTGGSGGSGGGGSGGSGGGSIEQIQKQIAAIQKQIAAIQKQIYAMTGSGGGGSGGSGGGGSGGSIEQIQKQITAIREQIRAIWKQIPAMTP | binds | –
8 | SEQ ID NO 105 (designed binder, Alphabody, AC11b library clone) GSIEQIQKRIARIQEKIAWIQKPIYQMTGGSGGSGGGGSGGSGGGSIEQIQKQIAAIQKQIAAIQKQIYAMTGSGGGGSGGSGGGGSGGSIEQIQKQIRAIREQIGAILKQIKAMTP | binds | –
9 | hFlt3L_cl4 (designed binder) HMSIEEIQKQIAAIQKQIAAIQKQIYAMTGGSGGGSGGGSGGGSGMSIEEIQKQIAAIQKQIAAIQKQIYAMTGGSGGGSGGGSGGGSGMSIEEIQDQILNIQWQIHDIQQQIIVMTPGG | – | Ka [2]: 4.95e+06 M⁻¹; ΔG [2]: -9.5 kcal/mol; ΔH [2]: -16.6 kcal/mol; ΔS [2]: -22.9 cal/(mol·K); Kd [3]: 202 nM

Now from value to binder, other results behind:

Row | binding result [1] | Binder | other results
10 | binds | SEQ ID NO 99 (designed binder, Alphabody, AC11b library clone) GSIEQIQKPIAEIQEIIARIQKKIYIMTGGSGGSGGGGSGGSGGGSIEQIQKQIAAIQKQIAAIQKQIYAMTGSGGGGSGGSGGGGSGGSIEQIQKQISAIGEQIFAIVKQIYAMTP | –
11 | binds | SEQ ID NO 103 (designed binder, Alphabody, AC11b library clone) GSIEQIQKPIASIQELIAMIQKAIYWMTGGSGGSGGGGSGGSGGGSIEQIQKQIAAIQKQIAAIQKQIYAMTGSGGGGSGGSGGGGSGGSIEQIQKQIVAISEQIMAIIKQIGAMTP | –
12 | binds | SEQ ID NO 77 (designed binder, Alphabody, AC12 library clone) GSIEQIQKGIAAIQEWIATIQKRIYAMTGGSGGSGGGSIEQIQKQIAAIQKQIAAIQKQIYAMTGSGGGGSGGSIEQIQKQIRAITIQIIAIIQQIWAMTP | –
